One substance from article doi:10.1101/2024.07.18.604040 can be followed below.

The assay addresses recombinant human λS Full-Length free light chain (rλS-LC) (human).

As a reminder, the stoichiometry N is the number of molecules, sites or subunits per partner or assembly. In the case of “recombinant human λS Full-Length free light chain (rλS-LC) (natural protein)”, the stoichiometry N is 2.
